Experimental data taken from patent publication US20260274921A1.

Legend:
[1] = target: His-tagged CD47 extracellular domain (ECD) protein (Abclonal, CAT #RP01306) (human) (UniProt Q08722); assay: ELISA; pH 6.0; conditions: Fc fusion
[2] = target: His-tagged CD47 extracellular domain (ECD) protein (Abclonal, CAT #RP01306) (human) (UniProt Q08722); assay: ELISA; pH 7.2; conditions: Fc fusion

Sequence of His-tagged CD47 extracellular domain (ECD) protein (Abclonal, CAT #RP01306) (human) (Q08722 19-139): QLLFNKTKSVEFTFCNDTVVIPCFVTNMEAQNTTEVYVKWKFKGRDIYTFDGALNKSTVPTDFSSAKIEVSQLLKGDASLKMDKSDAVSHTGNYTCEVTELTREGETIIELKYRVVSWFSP

Substance | EC50 [1] | EC50 [2]
SIN-300, wild type SIRPαV2 IgV-IgG1 Fc fusion protein | 0.667 nM | 3.84 nM
SIN-301, SIRPαV2 K53H IgV-IgG1 Fc | 1.35 nM | –
SIN-302, SIRPαV2 R69H IgV-IgG1 Fc | 30 nM | 158 nM
SIN-303, SIRPαV2 Q52H IgV-IgG1 Fc | 0.627 nM | 6.92 nM
SIN-304, SIRPαV2 K68H IgV-IgG1 Fc | 0.772 nM | –
